{"source": "the supplement of paper PMC10724198", "note": "± gives the standard deviation of the averaged measurements.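 Further: PSI is a weighted mean of sequencing reads over stability bins, variants kept only with over 10 reads, mCherry proximal and sfGFP distal, peptide attached via GGGS linker.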"}
{"system": "Saccharomyces cerevisiae", "assay": "protein stability index of tFT-peptide fusion (C-terminal peptide) (PSI (0-1 scale)); higher = more stable (slower turnover)", "conditions": "genetic background: wild type; temperature: 30 C"}
{"sequence": "RVNQRRATSEKT", "protein stability index": "0.677 ± 0.0082"}
{"sequence": "RVRDPQQISILL", "protein stability index": "0.65 ± 0.025"}
{"sequence": "RVRGAPGLRHES", "protein stability index": "0.5 ± 0.1"}
{"sequence": "RVRWLRGVPGGL", "protein stability index": "0.635 ± 0.09"}
{"sequence": "RVVCGGMGVRRG", "protein stability index": "0.63 ± 0.077"}
{"sequence": "RVVFHPFVQSLF", "protein stability index": "0.62 ± 0.028"}
{"sequence": "RVVGLWGSACMG", "protein stability index": "0.603 ± 0.01"}
{"sequence": "RVWFWSGRGGEF", "protein stability index": "0.709 ± 0.1"}
{"sequence": "RWAMGAAGGLQA", "protein stability index": "0.697 ± 0.021"}
{"sequence": "RWFGRFSFCLFF", "protein stability index": "0.5 ± 0.055"}
{"sequence": "RWGPGAVWGRGR", "protein stability index": "0.707 ± 0.068"}
{"sequence": "RWGWWGYRGGVP", "protein stability index": "0.744 ± 0.025"}
{"sequence": "RWIPRMSFSESQ", "protein stability index": "0.666 ± 0.0097"}
{"sequence": "RWLGGTGGWKSR", "protein stability index": "0.673 ± 0.041"}
{"sequence": "RWPQNRGRVSKP", "protein stability index": "0.747 ± 0.017"}
{"sequence": "RWVGWGAWLSEV", "protein stability index": "0.611 ± 0.02"}
{"sequence": "RWVNNKKTKGQD", "protein stability index": "0.767 ± 0.042"}
{"sequence": "RWVWRNRSGGGE", "protein stability index": "0.636 ± 0.043"}
{"sequence": "RYELSLRLYGSL", "protein stability index": "0.623 ± 0.089"}
{"sequence": "RYFISAHPGGIA", "protein stability index": "0.66 ± 0.02"}
{"sequence": "RYGHSRLCLGFR", "protein stability index": "0.657 ± 0.12"}
{"sequence": "RYHPRSHVLGRD", "protein stability index": "0.682 ± 0.063"}
{"sequence": "RYKALEAQGPRF", "protein stability index": "0.717 ± 0.0008"}
{"sequence": "RYLAEKAVLTHN", "protein stability index": "0.659 ± 0.012"}
{"sequence": "RYSPFSFLASLP", "protein stability index": "0.732 ± 0.049"}
{"sequence": "SACCNFAPAFGQ", "protein stability index": "0.662 ± 0.019"}
{"sequence": "SADGIVSQVTCL", "protein stability index": "0.693 ± 0.031"}
{"sequence": "SAFDVLCHVVVG", "protein stability index": "0.634 ± 0.021"}
{"sequence": "SAFPGGCCSILL", "protein stability index": "0.709 ± 0.022"}
{"sequence": "SAHPFLPLFSPP", "protein stability index": "0.718 ± 0.012"}
{"sequence": "SALEVSPSNGSF", "protein stability index": "0.598 ± 0.015"}
{"sequence": "SALTPCPPPYSH", "protein stability index": "0.668 ± 0.032"}
{"sequence": "SALVLVLPSIPP", "protein stability index": "0.649 ± 0.024"}
{"sequence": "SANCQQSRMFIT", "protein stability index": "0.623 ± 0.044"}
{"sequence": "SAPILPPQSSSP", "protein stability index": "0.749 ± 0.035"}
{"sequence": "SAPLVSLHLSPL", "protein stability index": "0.68 ± 0.011"}
{"sequence": "SAPPDVAPLFSP", "protein stability index": "0.74 ± 0.053"}
{"sequence": "SAQPELPNIAPA", "protein stability index": "0.636 ± 0.049"}
{"sequence": "SARQCWFSLSDD", "protein stability index": "0.639 ± 0.043"}
{"sequence": "SATPFSTEVCPL", "protein stability index": "0.631 ± 0.028"}
{"sequence": "SATSFLAAGPPT", "protein stability index": "0.6957 ± 0.0063"}
{"sequence": "SAVPFLRASRNA", "protein stability index": "0.693 ± 0.034"}
{"sequence": "SAWTPPLCLLPP", "protein stability index": "0.711 ± 0.043"}
{"sequence": "SCCPPSRTFFPS", "protein stability index": "0.734 ± 0.0078"}
{"sequence": "SCHPDPTRKSPN", "protein stability index": "0.7159 ± 0.0035"}
{"sequence": "SCIFRGNPFLLL", "protein stability index": "0.711 ± 0.018"}
{"sequence": "SCIIWPAKGCPF", "protein stability index": "0.687 ± 0.054"}
{"sequence": "SCLATDSWLAFV", "protein stability index": "0.665 ± 0.058"}
{"sequence": "SCNILPRFSPLL", "protein stability index": "0.723 ± 0.033"}
{"sequence": "SCSICLWVGHGC", "protein stability index": "0.656 ± 0.028"}
{"sequence": "SCTDIGWIMRDI", "protein stability index": "0.673 ± 0.061"}
{"sequence": "SCYRSCGALLSA", "protein stability index": "0.694 ± 0.011"}
{"sequence": "SDFAPTRPPPAP", "protein stability index": "0.634 ± 0.051"}
{"sequence": "SDGEHIYPESYR", "protein stability index": "0.695 ± 0.023"}
{"sequence": "SDGVSLRSFCWL", "protein stability index": "0.697 ± 0.035"}
{"sequence": "SDKRMGSLQMSS", "protein stability index": "0.712 ± 0.033"}
{"sequence": "SDKVKRYISTTL", "protein stability index": "0.637 ± 0.023"}
{"sequence": "SDLPPCPSRPSP", "protein stability index": "0.661 ± 0.11"}
{"sequence": "SDQEIKKSQCGG", "protein stability index": "0.659 ± 0.047"}
{"sequence": "SDQPTWTAQTSN", "protein stability index": "0.783 ± 0.025"}
{"sequence": "SDRSLPGVPVRF", "protein stability index": "0.7234 ± 0.0048"}
{"sequence": "SDVRANAYRPEH", "protein stability index": "0.688 ± 0.042"}
{"sequence": "SEAHMGWRGGEK", "protein stability index": "0.643 ± 0.1"}
{"sequence": "SEDGPTPAPSTD", "protein stability index": "0.71 ± 0.059"}
{"sequence": "SEDLSNNMKQDI", "protein stability index": "0.688 ± 0.026"}
{"sequence": "SEEAQRKRNTLK", "protein stability index": "0.6715 ± 0.0051"}
{"sequence": "SEGLFSVLYIWM", "protein stability index": "0.687 ± 0.16"}
{"sequence": "SEGSRGYLLEIQ", "protein stability index": "0.69 ± 0.029"}
{"sequence": "SENEGEGIYVRM", "protein stability index": "0.672 ± 0.065"}
{"sequence": "SENKRKEHRMSF", "protein stability index": "0.712 ± 0.05"}
{"sequence": "SESLLSQPIVLV", "protein stability index": "0.647 ± 0.017"}
{"sequence": "SEVRGRERLAKC", "protein stability index": "0.662 ± 0.041"}
{"sequence": "SFATSELRAGNN", "protein stability index": "0.701 ± 0.17"}
